Data set [1] in a line: Hydrophobicity k′rel by RP-HPLC relative to human insulin. The format is physicochemical. The note with it: LiChrosorb RP18, isocratic, 40° C., pH 7.3. As to the method: The elution was monitored by following the UV absorption of the eluate at 214 nm. Void time, t0, was found by injecting 0.1 mM sodium nitrate.
Data set [2] deals with human insulin receptor (Homo sapiens, UniProt P06213). Briefly: Insulin receptor binding, SPA antibody capture assay (Assay I). To be noted: recombinant human insulin receptor, A14 Tyr[125I]-human insulin. As to the method: A total of 100 μl was then added and a dilution series is made from appropriate samples. […] The phases were the then separated by centrifugation for 1 min and the plates counted in a Topcounter. The binding data were fitted using the nonlinear regression algorithm in the GraphPad Prism 2.01 (GraphPad Software, San Diego, Calif.).
human insulin receptor, sequence (P06213 28-1370 isoform P06213-2 limits assumed): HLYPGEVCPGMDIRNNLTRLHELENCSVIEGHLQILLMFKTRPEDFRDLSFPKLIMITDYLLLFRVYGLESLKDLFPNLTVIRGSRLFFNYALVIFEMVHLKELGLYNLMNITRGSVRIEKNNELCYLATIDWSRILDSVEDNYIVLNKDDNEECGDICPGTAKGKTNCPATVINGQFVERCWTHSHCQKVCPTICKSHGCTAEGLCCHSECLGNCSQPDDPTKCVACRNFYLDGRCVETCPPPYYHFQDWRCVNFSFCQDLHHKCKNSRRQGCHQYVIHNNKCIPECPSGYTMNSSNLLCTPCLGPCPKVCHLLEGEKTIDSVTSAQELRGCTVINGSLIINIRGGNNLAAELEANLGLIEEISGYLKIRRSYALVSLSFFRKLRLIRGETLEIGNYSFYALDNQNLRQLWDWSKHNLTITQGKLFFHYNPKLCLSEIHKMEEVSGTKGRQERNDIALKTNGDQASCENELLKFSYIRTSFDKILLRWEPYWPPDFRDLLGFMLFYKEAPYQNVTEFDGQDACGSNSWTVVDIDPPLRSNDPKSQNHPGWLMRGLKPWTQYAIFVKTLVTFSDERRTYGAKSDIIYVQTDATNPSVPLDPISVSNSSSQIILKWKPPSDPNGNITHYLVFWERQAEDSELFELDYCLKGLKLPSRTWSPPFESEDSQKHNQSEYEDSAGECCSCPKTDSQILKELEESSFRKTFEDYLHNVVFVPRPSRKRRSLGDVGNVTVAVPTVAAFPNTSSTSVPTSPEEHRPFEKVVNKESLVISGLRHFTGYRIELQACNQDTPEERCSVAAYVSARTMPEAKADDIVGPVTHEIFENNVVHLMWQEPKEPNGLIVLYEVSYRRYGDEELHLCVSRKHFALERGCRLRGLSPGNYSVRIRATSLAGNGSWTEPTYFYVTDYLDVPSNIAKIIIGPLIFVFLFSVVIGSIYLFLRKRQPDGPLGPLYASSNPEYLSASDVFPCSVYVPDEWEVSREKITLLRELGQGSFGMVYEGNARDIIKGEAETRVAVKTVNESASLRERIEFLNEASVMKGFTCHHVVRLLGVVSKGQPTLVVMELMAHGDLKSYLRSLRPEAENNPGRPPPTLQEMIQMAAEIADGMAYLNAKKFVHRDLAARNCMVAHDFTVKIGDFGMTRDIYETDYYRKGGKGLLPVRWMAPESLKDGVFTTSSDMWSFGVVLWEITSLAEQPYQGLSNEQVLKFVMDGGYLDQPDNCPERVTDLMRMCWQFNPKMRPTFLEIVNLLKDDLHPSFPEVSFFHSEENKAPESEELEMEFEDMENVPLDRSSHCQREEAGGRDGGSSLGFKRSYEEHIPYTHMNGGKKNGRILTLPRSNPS
Specific antibodies (F12) were produced by monoclonal technique: RBF mice were immunized by injecting 50 μg of purified mIR in FCA subcutaneously followed by two injections with 20 μg of mIR in FIA. […] Supernatants were screened for antibody production in a mIR specific ELISA. Positive wells were cloned and tested in Western blotting.

The results in this text go back to patent US9884094B2, “Method of treating diabetes mellitus” (Novo Nordisk A/S, priority 2012, dated 2018).

In the case of “N^εB29—(N-(L-Glu-OC(CH2)14CO—) des(B30) Human Insulin”, the “k′rel (hydrophobic index relative to human insulin)” value in data set [1] is reported as 1.17. Moreover, in data set [2], the “Receptor binding (% of human insulin)” value is listed as 9.4 % of human insulin.
“N^εB29—(N^α—(HOOC(CH2)16CO)-γ-Glu-N-(γ-Glu)) des(B30) Human Insulin”: the “k′rel (hydrophobic index relative to human insulin)” value in data set [1] came out at 1.17.
For the substance “NεB29-(Nα—(HOOC(CH2)16CO)-γ-Glu) des(B30) Human Insulin”, in data set [1], the “k′rel (hydrophobic index relative to human insulin)” value was 1.15. In addition, the “Receptor binding (% of human insulin)” value in data set [2] was 9.2 % of human insulin.
Take “N^εB29—(N-(L-Sar-OC(CH2)13CO-γ-L-Glu) des(B30) Human Insulin”: the “k′rel (hydrophobic index relative to human insulin)” value in data set [1] stood at 0.63. In addition, the “Receptor binding (% of human insulin)” value in data set [2] was 20 % of human insulin.
Regarding “N^εB29—[N—(HOOC(CH2)16CO)—N-(carboxymethyl)-β-Ala] des(B30) Human Insulin”, the “Receptor binding (% of human insulin)” value in data set [2] is 9.4 % of human insulin.
On to “N^εB29—(N—(HOOC(CH2)14CO-ε-L-LysCO—) des(B30) Human Insulin”, for which, in data set [1], the “k′rel (hydrophobic index relative to human insulin)” value is 0.90. Besides, the “Receptor binding (% of human insulin)” value in data set [2] is 5.7 % of human insulin.
